Publication PMC5970976

Target: CHIKV virus-like particles (VLPs, strain 37997) (chikungunya virus (strain 37997))
Assay: SPR

Chain of CHIKV virus-like particles (VLPs, strain 37997) (chikungunya virus (strain 37997)) (Q5XXP3 326-748 limits assumed, chain 1 of 2): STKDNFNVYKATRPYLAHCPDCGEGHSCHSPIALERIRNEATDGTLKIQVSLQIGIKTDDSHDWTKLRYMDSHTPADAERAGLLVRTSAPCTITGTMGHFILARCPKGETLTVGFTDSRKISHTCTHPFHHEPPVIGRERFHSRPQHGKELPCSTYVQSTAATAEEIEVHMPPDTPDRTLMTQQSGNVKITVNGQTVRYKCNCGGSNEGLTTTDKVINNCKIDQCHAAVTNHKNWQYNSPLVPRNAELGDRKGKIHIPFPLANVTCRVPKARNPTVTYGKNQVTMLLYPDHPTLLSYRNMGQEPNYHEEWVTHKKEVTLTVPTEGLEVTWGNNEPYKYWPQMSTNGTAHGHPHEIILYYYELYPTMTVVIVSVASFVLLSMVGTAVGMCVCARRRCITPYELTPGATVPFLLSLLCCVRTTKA
Chain of CHIKV virus-like particles (VLPs, strain 37997) (chikungunya virus (strain 37997)) (Q5XXP3 810-1248 limits assumed, chain 2 of 2): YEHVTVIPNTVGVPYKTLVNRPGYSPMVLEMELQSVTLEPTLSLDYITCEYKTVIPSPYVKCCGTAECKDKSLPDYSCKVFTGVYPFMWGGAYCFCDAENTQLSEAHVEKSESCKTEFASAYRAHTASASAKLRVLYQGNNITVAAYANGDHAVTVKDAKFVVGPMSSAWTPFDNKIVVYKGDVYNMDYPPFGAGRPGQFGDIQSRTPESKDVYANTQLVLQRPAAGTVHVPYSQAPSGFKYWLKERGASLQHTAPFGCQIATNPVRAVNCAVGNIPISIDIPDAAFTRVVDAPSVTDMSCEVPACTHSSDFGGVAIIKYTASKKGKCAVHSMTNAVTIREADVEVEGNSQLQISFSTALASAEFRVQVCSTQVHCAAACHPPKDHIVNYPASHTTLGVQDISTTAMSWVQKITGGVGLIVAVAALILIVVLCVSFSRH

For “Mxra8 cleaved from the IgG backbone (recombinant Mxra8 from Mxra8-HRV-Fc) (from UniProt Q9DBV4 22-336) (domain or fragment)”, the Kd was 200 nM.
